Experimental data reported in publication PMC10786891, “Massively parallel profiling of RNA-targeting CRISPR-Cas13d”.
Where a chain is given by its changes, count along the chain named. Names may count otherwise.

T1: EsCas13d, nuclease-dead (Eubacterium siraeum, UniProt B0MS50, R295A;H300A;R849A;H854A)
T1 sequence: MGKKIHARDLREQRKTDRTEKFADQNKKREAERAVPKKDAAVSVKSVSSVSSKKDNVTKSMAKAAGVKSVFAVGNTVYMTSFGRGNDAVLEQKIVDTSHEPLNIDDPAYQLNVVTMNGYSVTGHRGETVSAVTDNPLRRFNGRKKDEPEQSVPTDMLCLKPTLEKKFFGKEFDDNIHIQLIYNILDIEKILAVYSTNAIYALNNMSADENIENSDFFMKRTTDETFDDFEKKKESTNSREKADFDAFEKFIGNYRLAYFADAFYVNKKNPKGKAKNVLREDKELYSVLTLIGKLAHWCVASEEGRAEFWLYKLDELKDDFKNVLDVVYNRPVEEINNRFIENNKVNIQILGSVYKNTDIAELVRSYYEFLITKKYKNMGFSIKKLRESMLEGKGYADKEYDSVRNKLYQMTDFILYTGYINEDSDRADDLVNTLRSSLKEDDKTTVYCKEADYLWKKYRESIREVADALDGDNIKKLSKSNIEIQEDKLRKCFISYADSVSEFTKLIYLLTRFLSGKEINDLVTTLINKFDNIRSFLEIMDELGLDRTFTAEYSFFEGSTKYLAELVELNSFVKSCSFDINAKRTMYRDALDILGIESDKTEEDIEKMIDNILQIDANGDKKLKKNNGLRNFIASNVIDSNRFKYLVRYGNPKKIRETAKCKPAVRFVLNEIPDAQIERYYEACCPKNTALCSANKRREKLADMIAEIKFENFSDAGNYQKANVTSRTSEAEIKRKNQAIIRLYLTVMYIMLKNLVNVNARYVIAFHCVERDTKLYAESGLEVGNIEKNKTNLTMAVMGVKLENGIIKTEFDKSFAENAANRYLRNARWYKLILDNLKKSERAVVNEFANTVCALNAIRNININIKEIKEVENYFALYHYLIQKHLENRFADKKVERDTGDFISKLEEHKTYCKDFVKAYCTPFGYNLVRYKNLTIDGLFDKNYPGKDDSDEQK

B1: target 1 insU 3' of 17,insC 3' of 5 (mixed)
RNA 1: CACCCGUGCAAAAAUGCAGGGGUCUAAAACUGAGCGGAUAACCUCUCUAUGG
RNA 2: GGGAAUGGAUCCACAUCUACGAAUUCGUACCAUAGUAGAGGUUAUCCGCCUCACCGAGAUCGGAAGAGCACACGU
B2: target 1 insG 3' of 7,insC 3' of 5 (mixed)
RNA 1: B1 RNA 1
RNA 2: B1 RNA 2 with U36A, A37G, G38A, A39G, G41U, U43A, A44U, U45C, C46G
B3: target 1 insU 3' of 13 (mixed)
RNA 1: B1 RNA 1
RNA 2: GGGAAUGGAUCCACAUCUACGAAUUCGUACCAUAGAGAGUGUUAUCCGCUCACCGAGAUCGGAAGAGCACACGU
B4: target 1 C7G,U8G (mixed)
RNA 1: B1 RNA 1
RNA 2: GGGAAUGGAUCCACAUCUACGAAUUCGUACCAUAGAGAGGUUAGGCGCUCACCGAGAUCGGAAGAGCACACGU
B5: target 1 insC 3' of 14,insA 3' of 7 (mixed)
RNA 1: B1 RNA 1
RNA 2: B1 RNA 2 with U36A, A37G, G38A, A39C, C47A, G48C, C49G
B6: target 1 insA 3' of 19,insA 3' of 4 (mixed)
RNA 1: B1 RNA 1
RNA 2: B1 RNA 2 with G35A, U36G, C50A
B7: target 1 insA 3' of 22,insA 3' of 8 (mixed)
RNA 1: B1 RNA 1
RNA 2: B1 RNA 2 with C31A, A32C, U33A, A34U, G35A, U36G, C46A, G48C, C49G
B8: target 1 insG 3' of 8,insG 3' of 2 (mixed)
RNA 1: B1 RNA 1
RNA 2: GGGAAUGGAUCCACAUCUACGAAUUCGUACCAUAGAGAGGUUAUGCCGCUCGACCGAGAUCGGAAGAGCACACGU
B9: target 1 U11C,A20U (mixed)
RNA 1: B1 RNA 1
RNA 2: B4 RNA 2 with A32U, U41C, G44U, G45C
B10: target 1 G13A,G15U (mixed)
RNA 1: B1 RNA 1
RNA 2: B4 RNA 2 with G37U, G39A, G44U, G45C
B11: target 1 insG 3' of 14,insC 3' of 5 (mixed)
RNA 1: B1 RNA 1
RNA 2: B1 RNA 2 with U36A, A37G, G38A, A39G
B12: target 1 insU 3' of 21,insU 3' of 21 (mixed)
RNA 1: B1 RNA 1
RNA 2: GGGAAUGGAUCCACAUCUACGAAUUCGUACCUUAUAGAGAGGUUAUCCGCUCACCGAGAUCGGAAGAGCACACGU
B13: target 1 insG 3' of 19,insA 3' of 7 (mixed)
RNA 1: B1 RNA 1
RNA 2: B1 RNA 2 with A34G, G35A, U36G, C47A, G48C, C49G
B14: target 1 insG 3' of 6,insG 3' of 4 (mixed)
RNA 1: B1 RNA 1
RNA 2: B8 RNA 2 with G45C, C47G, U50G, C51U, G52C
B15: target 1 U11C,G15A (mixed)
RNA 1: B1 RNA 1
RNA 2: B4 RNA 2 with G37A, U41C, G44U, G45C
B16: target 1 complement block 14-16 (mixed)
RNA 1: B1 RNA 1
RNA 2: B4 RNA 2 with A36U, G37C, A38U, G44U, G45C
B17: target 1 C2U,C21A (mixed)
RNA 1: B1 RNA 1
RNA 2: B4 RNA 2 with C31A, G44U, G45C, C50U
B18: target 1 A1G,U11G (mixed)
RNA 1: B1 RNA 1
RNA 2: B4 RNA 2 with U41G, G44U, G45C, A51G
B19: target 1 insC 3' of 18,insG 3' of 7 (mixed)
RNA 1: B1 RNA 1
RNA 2: B1 RNA 2 with G35C, U36G, C47G, G48C, C49G
B20: target 1 C2A,C6A (mixed)
RNA 1: B1 RNA 1
RNA 2: B4 RNA 2 with G44U, G45C, C46A, C50A
B21: target 1 insG 3' of 9,insG 3' of 4 (mixed)
RNA 1: B1 RNA 1
RNA 2: B8 RNA 2 with U44G, G45U, U50G, C51U, G52C
B22: target 1 U3A,U11G (mixed)
RNA 1: B1 RNA 1
RNA 2: B4 RNA 2 with U41G, G44U, G45C, U49A
B23: target 1 insA 3' of 7,insU 3' of 5 (mixed)
RNA 1: B1 RNA 1
RNA 2: B8 RNA 2 with G45C, C46A, C49U, U50C, C51U, G52C
B24: target 1 G13A,A14C (mixed)
RNA 1: B1 RNA 1
RNA 2: B4 RNA 2 with A38C, G39A, G44U, G45C
B25: target 1 insA 3' of 7 (mixed)
RNA 1: B1 RNA 1
RNA 2: B3 RNA 2 with U40G, G41U, U43A, A44U, U45C, C46A
B26: target 1 C4G,A14G (mixed)
RNA 1: B1 RNA 1
RNA 2: B4 RNA 2 with A38G, G44U, G45C, C48G
B27: target 1 insG 3' of 9,insC 3' of 1 (mixed)
RNA 1: B1 RNA 1
RNA 2: B8 RNA 2 with U44G, G45U, G52A, A53C
B28: target 1 insU 3' of 13,insU 3' of 7 (mixed)
RNA 1: B1 RNA 1
RNA 2: B1 RNA 2 with U36A, A37G, G38A, A39G, G40U, C47U, G48C, C49G
B29: target 1 C6A,U19G (mixed)
RNA 1: B1 RNA 1
RNA 2: B4 RNA 2 with U33G, G44U, G45C, C46A
B30: target 1 insG 3' of 10,insG 3' of 8 (mixed)
RNA 1: B1 RNA 1
RNA 2: B8 RNA 2 with A43G, U44A, G45U, C46G, G48C, C49G, U50C, C51U, G52C
B31: target 1 insC 3' of 19,insU 3' of 5 (mixed)
RNA 1: B1 RNA 1
RNA 2: B1 RNA 2 with A34C, G35A, U36G, C49U
B32: target 1 G5C,C21A (mixed)
RNA 1: B1 RNA 1
RNA 2: B4 RNA 2 with C31A, G44U, G45C, G47C
B33: target 1 G5A,G15C (mixed)
RNA 1: B1 RNA 1
RNA 2: B4 RNA 2 with G37C, G44U, G45C, G47A

Molecular target: T1, EsCas13d, nuclease-dead
Assay: crRNA (strand 1, pre-loaded); Mg2+; 40 mM Tris-HCl pH 7.5, 150 mM NaCl, 6 mM MgCl2, 1 mM DTT, 0.1% Tween-20, 0.2 mg/ml BSA; 25 C; 10 min per concentration, then washed
Conditions: tags: His6-TwinStrep-SUMO cleaved; N-terminal SNAP kept (SNAP-Surface 488); label: 3' end held by stalled T7 RNA polymerase

| Binder | Kd |
| --- | --- |
| B1 | 60 ± 14 nM |
| B2 | 9.8 ± 0.6 nM |
| B3 | 11.4 ± 1.5 nM |
| B4 | 11.5 ± 0.9 nM |
| B5 | 47 ± 10 nM |
| B6 | 16 ± 1.3 nM |
| B7 | 20.9 ± 1.3 nM |
| B8 | 13.1 ± 0.6 nM |
| B9 | 55 ± 7 nM |
| B10 | 80 ± 40 nM |
| B11 | 12.1 ± 1 nM |
| B12 | 72 ± 13 nM |
| B13 | 36.7 ± 2.9 nM |
| B14 | 8 ± 0.4 nM |
| B15 | 27 ± 3.3 nM |
| B16 | 61 ± 9 nM |
| B17 | 28.1 ± 3.1 nM |

| Binder | Kd |
| --- | --- |
| B18 | 23.8 ± 1.6 nM |
| B19 | 36.8 ± 2.2 nM |
| B20 | 4.84 ± 0.28 nM |
| B21 | 8.9 ± 0.6 nM |
| B22 | 12.2 ± 0.7 nM |
| B23 | 11.4 ± 0.33 nM |
| B24 | 12 ± 0.7 nM |
| B25 | 5.49 ± 0.21 nM |
| B26 | 13.2 ± 1.2 nM |
| B27 | 17.4 ± 1.2 nM |
| B28 | 13.7 ± 0.8 nM |
| B29 | 46 ± 4 nM |
| B30 | 21.8 ± 0.7 nM |
| B31 | 39 ± 13 nM |
| B32 | 27 ± 5 nM |
| B33 | 54 ± 17 nM |
